Results on one molecule are retold here after patent US20220267443A1 (published 2022).

As a reminder, the Kd is the equilibrium constant for the complex coming apart.

What all share (test): SPR
Assay [1] concerns the target recombinant cynomolgus CTLA-4-Fc (Sino Biological, #90213-C02H).
For assay [2], the target named is recombinant human CTLA-4-Fc (R&D Systems, #7268-CT) (UniProt P16410 36-161).
Another assay concerns the target Human CTLA-4 monomer.
The target of assay [3] is Cynomolgus CTLA-4 monomer.

Chain of recombinant cynomolgus CTLA-4-Fc (Sino Biological, #90213-C02H) (chain, as listed by the source C02H): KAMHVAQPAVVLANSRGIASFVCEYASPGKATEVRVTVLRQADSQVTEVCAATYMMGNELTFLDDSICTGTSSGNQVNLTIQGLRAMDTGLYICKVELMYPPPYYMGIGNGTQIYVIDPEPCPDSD
Chain of recombinant human CTLA-4-Fc (R&D Systems, #7268-CT) (P16410 36-161): as the sequence (chain, as listed by the source C02H) above, with N14S, M106L counted along it

B1: AGEN2041w (antibody)
heavy: EVQLVESGGGLVKPGGSLRLSCAASGFTFSSYSMNWVRQAPGKGLEWVSSISSSSSYIYYADSVKGRFTISRDNAKNSLYLQMNSLRAEDTAVYYCARVGLMGPFDIWGQGTMVTVSSASTKGPSVFPLAPCSRSTSESTAALGCLVKDYFPEPVTVSWNSGALTSGVHTFPAVLQSSGLYSLSSVVTVPSSNFGTQTYTCNVDHKPSNTKVDKTVERKCCVECPPCPAPPVAGPSVFLFPPKPKDTLMISRTPEVTCVVVDVSHEDPEVQFNWYVDGVEVHNAKTKPREEQFNSTFRVVSVLTVVHQDWLNGKEYKCKVSNKGLPAPIEKTISKTKGQPREPQVYTLPPSREEMTKNQVSLTCLVKGFYPSDIAVEWESNGQPENNYKTTPPMLDSDGSFFLYSKLTVDKSRWQQGNVFSCSVMHEALHNHYTQKSLSLSPG
light: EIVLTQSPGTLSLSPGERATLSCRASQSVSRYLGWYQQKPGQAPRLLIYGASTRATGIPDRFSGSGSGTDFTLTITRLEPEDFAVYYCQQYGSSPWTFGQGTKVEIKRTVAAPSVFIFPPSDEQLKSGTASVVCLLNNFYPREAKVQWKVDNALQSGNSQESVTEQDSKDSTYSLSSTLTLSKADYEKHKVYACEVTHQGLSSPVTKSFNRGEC
With B1, the Kd in assay [1] came out at 4.4 nM; in assay [2], 1.7 nM; with Human CTLA-4 monomer it was 2 nM; in assay [3] it was 2.1 nM.
